From patent US20230119066A1 (Bristol-Myers Squibb, published 2023)

B1: mAb 12F27 (antibody, V domains shown)
VH: QVQLVESGGGVVQPGRSLRLSCAASGFSFRSYGIHWVRQAPGKGLEWVAVISYEGSNKRYADSVKGRFTISRDNSKSTLSLQMNSLRAEDTAVYYCAKGRRPSGEGAFDIWGQGTMVTVSS
VL: DIQMTQSPSSLSASVGDRVTITCRASQGISSWLAWYQQKPEKAPKSLIYAASSLQSGVPSRFSGSGSGTDFTLTISSLQPEDFATYYCQQYNSFPPTFGQGTKVEIKR
B2: mAb 4A19, nonfucosylated humanized IgG1 anti-hCCR8 (antibody, V domains shown)
VH: QVQLVQSGAEVKKPGASVKVSCKASGYTFTDSEMHWVRQATGQGLEWMGAIQPETGGTAYNQKFKARVTMTRDTSISTAYMELSSLRSEDTAVYYCARRRRNFDYWGQGTLVTVSS
VL: DIVMTQTPLSLSVTPGQPASISCRSSQSLFHSSGNTYLHWYLQKPGQPPQLLIYKVSNRFSGVPDRFSGSGSGTDFTLKISRVEAEDVGVYYCSQSTHVPFTFGQGTKLEIKR
notes: hIgG1-nf, expressed in Expi293 Fut8-/- cells; also called CCR8-nf; A419
B3: mAb 14S15, nonfucosylated chimeric mouse-human anti-hCCR8 (antibody, human IgG1, kappa, V domains shown)
VH: EVQLVEFGGGLVQPKGSLKLSCVVSGFRFNPYAMNWVRQAPGKGLEWLGRIRSKSNNYETYYADSVKDRFIISRDDSQKMVYLQMNNVKTEDTAMYYCVGYSDLYVLDYWGQGTSVTVSS
VL: DIVMTQAAPSVPVTPGESVSISCRSSKSLLHSNGNTFLYWFLQRPGQSPQLLIYRMSNLASGVPHRFSGSGSGTAFTLRISRVEAEDVGVYYCMQHLEYPFTFGSGTKLEIKR
notes: Chimeric version with nf human IgG1 Fc; also called 14S15-IgG1-nf; CCR8.2
B4: 9G10, starting mouse anti-CCR8 mAb of 14S15 and 14S15h (antibody, V domains shown)
VH: B3 VH
VL: DIVMTQAAPSVPVTPGESVSISCRSSKSLLHSNGNTFLYWFLQRPGQSPQLLIYRMSNLASGVPHRFSGSGSGTAFTLRISRVEAEDVGVYYCMQHLEYPFTFGSGTKLEIK
notes: also called starting mouse Ab; starting mouse mAb
B5: 14S15h Fab fragment (Fab, V domains shown)
VH: EVQLVESGGGLVKPGGSLRLSCAASGFRFGPYAMNWVRQAPGKGLEWVGRIRSKSNNYETYYADSVKDRFTISRDDSKNTLYLQMNSLKTEDTAVYYCVGYSDLYVLDYWGQGTLVTVSS
VL: DIVMTQTPPSLPVNPGEPASISCRSSKSLLHSQGNTFLYWYLQKPGQSPQLLIYRMSNLASGVPDRFSGSGSGSDFTLKISWVEAEDVGVYYCMQHLEYPFTFGPGTKVDIK
notes: Tested as a Fab fragment whose constant parts are not delimited

How the values were obtained:
[1] = biological target: T1, human C-C Motif Chemokine Receptor 8 (hCCR8) (human, UniProt P51685 1-355); assay: cell-based or functional assay
[2] = biological target: T1, human C-C Motif Chemokine Receptor 8 …; assay: cell-based or functional assay; remark: listed apart in the source
[3] = biological target: T1, human C-C Motif Chemokine Receptor 8 …; assay: cell-based or functional assay; remark: listed apart in the source
[4] = biological target: T1, human C-C Motif Chemokine Receptor 8 …; assay: flow cytometry, binding to activated human Tregs, median EC50
Protocol: Activated Tregs prepared from previously isolated and expanded Tregs were stimulated for 2 days with anti-CD3/CD28 activation beads (ThermoFisher) in the presence of 100 units/ml of recombinant human IL-2. The Abs were serially diluted from a starting concentration of 30 μg/ml. An appropriate PE-conjugated secondary Ab (Jackson ImmunoResearch) against the primary anti-CCR8 Ab was applied, incubated for 15 min at 4° C., and then washed off. EC₅₀ values for the binding of selected anti-CCR8 mAbs to activated Tregs, was calculated using GraphPad Prism (GraphPad Software, La Jolla, Calif.).
A select subset of Abs having EC₅₀ values ranging from picomolar to nanomolar is presented in FIG. 11B, and the respective EC₅₀ values are provided in Table 4.

[5] = biological target: T2, CCR8 N-terminal peptide (SPR of Example 10) (human, sulfation not stated in Example 10; the panning peptide was biotinylated); assay: SPR; starting mouse Ab 9G10, before humanization
T2 construct: also called biotinylated CCR8 N-terminal peptide from Anaspec

[6] = biological target: T2, CCR8 N-terminal peptide (SPR of Example …); assay: SPR; 14S15h Fab fragment, humanized, affinity-matured

| Binder | Median EC50 (pM), ADCC killing of activated Tregs by allogeneic NK cells [1] | EC50 (pM), cross-linking of CD16 expression reporter cells [2] | IC50 (nM), blockade of calcium flux on CCR8-expressing cells [3] | EC50 [4] | Kd [5] | Kd [6] |
| --- | --- | --- | --- | --- | --- | --- |
| B1 | 304000 pM | – | – | – | – | – |
| B2 | 13.1 pM | 0.69 pM | 0.465 nM | 1.65 nM | – | – |
| B3 | 39.7 pM | 8.02 pM | 1.33 nM | 0.252 nM | – | – |
| B4 | – | – | – | – | 1.4 nM | – |
| B5 | – | – | – | – | – | 0.64 nM |
